Where two headings read alike, the source gives them in different places.
Tests used:
[1] = target: β1 adrenergic receptor (rat) (UniProt P18090); test: cell-based or functional assay
[2] = target: β1 adrenergic receptor (rat) (UniProt P18090); test: cell-based or functional assay; remark: listed apart in the source

Sequence of β1 adrenergic receptor (rat) (P18090 whole entry): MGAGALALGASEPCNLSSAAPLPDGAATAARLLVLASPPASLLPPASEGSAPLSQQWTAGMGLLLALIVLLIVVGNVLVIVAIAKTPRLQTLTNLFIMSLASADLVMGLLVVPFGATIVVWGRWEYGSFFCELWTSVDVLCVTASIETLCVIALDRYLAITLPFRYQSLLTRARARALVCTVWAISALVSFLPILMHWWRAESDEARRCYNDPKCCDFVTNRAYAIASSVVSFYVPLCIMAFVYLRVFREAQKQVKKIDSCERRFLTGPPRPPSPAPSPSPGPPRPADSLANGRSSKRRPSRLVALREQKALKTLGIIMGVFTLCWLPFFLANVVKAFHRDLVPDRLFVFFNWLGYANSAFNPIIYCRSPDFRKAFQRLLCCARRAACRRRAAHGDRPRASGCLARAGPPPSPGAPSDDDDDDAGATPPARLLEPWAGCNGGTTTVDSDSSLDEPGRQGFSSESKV

Change Level in Current Density [pA/pF] (ISO 30 nM against no ISO) [1]: -16.4 pA/pF | Current Change Level [nA] [1]: -0.2 nA | membrane current value immediately after the pulse, ISO not supplied (whole-cell patch clamp) [1]: -0.2 nA | membrane current value, ISO supplied (whole-cell patch clamp) [1]: 0.5 nA | Change Level in Current Density [pA/pF] (ISO 30 nM against no ISO) [2]: -9.14 pA/pF
Substance: Gαi (C351G) (from UniProt B2RSH2 2-354)
